Test results: article PMC9393700

Columns and labels:
Assay in all cases: SEC; Superdex S200 16/600 column; purified F proteins (Figure 2A)
[1] = target: RSV A2 F DsCav1 (trimer) (respiratory syncytial virus A2)
[2] = target: RSV head hMPV stem construct 1 (RHMS-1) (respiratory syncytial virus (RSV-A in Figure 1B) | human metapneumovirus (hMPV-A1 in Figure 1B)) (UniProt P03420)
[3] = target: trypsin-treated hMPV B2 F (human metapneumovirus B2)

In the case of “RSV A2 F DsCav1 (trimer) (natural protein)”, the stoichiometry N [1] is reported as 3.

In the case of “RSV head hMPV stem construct 1 (RHMS-1) (from UniProt P03420 1-25; P03420 55-314)”, the stoichiometry N [2] is reported as 3.

Substance “trypsin-treated hMPV B2 F (natural protein)” has a stoichiometry N [3] of 3.
